To fix the notation:
B1: glmS ribozyme (parent)
chain: AUAAAAGCGCCAGAACUACAGAAAUGUAGUUGACGAGGAGGAGGUUUAUCGAAUUUUCGGCGGAUGCCUCCAAA

Conditions in all cases: with glucosamine-6-phosphate
In series [1] the parent is B1. The series can be described thus: self-cleavage kobs at 40 uM GlcN6P; higher = faster cleavage; RNA array. The method in brief:
(§1)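 In situ transcription by E. coli RNA polymerase produced barcoded ribozyme variants on sequenced MiSeq chips, and a hybridised Cy3 probe tracked them at 37 °C. Glucosamine-6-phosphate was flowed in at 40 μM to 10 mM in HEPES/KCl/Mg(OAc)2 buffer. kcat and KM were taken from weighted Michaelis–Menten fits of kobs values from exponential decay fits.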

The variants in series [2] derive from B1. The series can be described thus: self-cleavage kobs at 160 uM GlcN6P; higher = faster cleavage; RNA array. In short, it runs like this: as §1
The variants in series [3] derive from B1. The series is described as follows: self-cleavage kobs at 640 uM GlcN6P; higher = faster cleavage; RNA array. The method in brief:
as §1

Variants of B1 are the subject of series [4]. The series is described as follows: self-cleavage kobs at 2500 uM GlcN6P; higher = faster cleavage; RNA array. The method in brief: as §1
Series [5] covers variants of B1. The series is described as follows: self-cleavage kobs at 10000 uM GlcN6P; higher = faster cleavage; RNA array. The method in brief:
as §1

± gives the standard error. Fewer inactive variants are shown than the library holds. Some results are limits rather than exact numbers.

Regarding A6C G13C G29U C70G, in the series with glucosamine-6-phosphate [1], the “self-cleavage kobs at 40 uM GlcN6P” value is below 1e-05 s⁻¹.

As for G7A U56A, in the series with glucosamine-6-phosphate [1], the “self-cleavage kobs at 40 uM GlcN6P” value is below 1e-05 s⁻¹. The “self-cleavage kobs at 160 uM GlcN6P” value with glucosamine-6-phosphate [2] is below 1e-05 s⁻¹. The “self-cleavage kobs at 640 uM GlcN6P” value with glucosamine-6-phosphate [3] was below 1e-05 s⁻¹.

With G32C A64C, the “self-cleavage kobs at 40 uM GlcN6P” value in the series with glucosamine-6-phosphate [1] is below 1e-05 s⁻¹. For the same variant, in the series with glucosamine-6-phosphate [2], the “self-cleavage kobs at 160 uM GlcN6P” value was below 1e-05 s⁻¹. In addition, in the series with glucosamine-6-phosphate [4], the “self-cleavage kobs at 2500 uM GlcN6P” value was below 1e-05 s⁻¹. Further, in the series with glucosamine-6-phosphate [5], the “self-cleavage kobs at 10000 uM GlcN6P” value was below 1e-05 s⁻¹.

With C16G C34G C50A A64G, the “self-cleavage kobs at 40 uM GlcN6P” value in the series with glucosamine-6-phosphate [1] was below 1e-05 s⁻¹.

G41A A52G G59A: the “self-cleavage kobs at 40 uM GlcN6P” value with glucosamine-6-phosphate [1] is below 1e-05 s⁻¹. Further, the “self-cleavage kobs at 160 uM GlcN6P” value with glucosamine-6-phosphate [2] is below 1e-05 s⁻¹. Also, the “self-cleavage kobs at 640 uM GlcN6P” value with glucosamine-6-phosphate [3] is below 1e-05 s⁻¹.

As for A15C G63U, in the series with glucosamine-6-phosphate [1], the “self-cleavage kobs at 40 uM GlcN6P” value is below 1e-05 s⁻¹. Besides, in the series with glucosamine-6-phosphate [3], the “self-cleavage kobs at 640 uM GlcN6P” value was below 1e-05 s⁻¹. In addition, in the series with glucosamine-6-phosphate [5], the “self-cleavage kobs at 10000 uM GlcN6P” value was below 1e-05 s⁻¹.

As for C11U U31C U47C A52U, in the series with glucosamine-6-phosphate [1], the “self-cleavage kobs at 40 uM GlcN6P” value was below 1e-05 s⁻¹. In addition, the “self-cleavage kobs at 10000 uM GlcN6P” value with glucosamine-6-phosphate [5] is below 1e-05 s⁻¹.

For G7A G29C, in the series with glucosamine-6-phosphate [1], the “self-cleavage kobs at 40 uM GlcN6P” value is below 1e-05 s⁻¹. In addition, the “self-cleavage kobs at 2500 uM GlcN6P” value with glucosamine-6-phosphate [4] was below 1e-05 s⁻¹.

In the case of C34G G35C, in the series with glucosamine-6-phosphate [1], the “self-cleavage kobs at 40 uM GlcN6P” value was below 1e-05 s⁻¹.

In the case of A33C C50G C71U, the “self-cleavage kobs at 40 uM GlcN6P” value with glucosamine-6-phosphate [1] is 0.000772 ± 0.00027 s⁻¹. The “self-cleavage kobs at 640 uM GlcN6P” value in the series with glucosamine-6-phosphate [3] is 0.000204 ± 5.8e-05 s⁻¹. In addition, in the series with glucosamine-6-phosphate [4], the “self-cleavage kobs at 2500 uM GlcN6P” value amounted to 0.000589 ± 0.00017 s⁻¹. For the same variant, the “self-cleavage kobs at 10000 uM GlcN6P” value in the series with glucosamine-6-phosphate [5] was found to be 5.96e-05 ± 2.9e-05 s⁻¹.

Consider A42G U55G G62C, for which the “self-cleavage kobs at 40 uM GlcN6P” value in the series with glucosamine-6-phosphate [1] was below 1e-05 s⁻¹. Moreover, the “self-cleavage kobs at 160 uM GlcN6P” value with glucosamine-6-phosphate [2] is below 1e-05 s⁻¹. In the series with glucosamine-6-phosphate [4], the “self-cleavage kobs at 2500 uM GlcN6P” value is below 1e-05 s⁻¹. Also, the “self-cleavage kobs at 10000 uM GlcN6P” value in the series with glucosamine-6-phosphate [5] was below 1e-05 s⁻¹.

For the variant G38A G43A, the “self-cleavage kobs at 40 uM GlcN6P” value in the series with glucosamine-6-phosphate [1] was below 1e-05 s⁻¹. Further, in the series with glucosamine-6-phosphate [3], the “self-cleavage kobs at 640 uM GlcN6P” value was below 1e-05 s⁻¹. In addition, in the series with glucosamine-6-phosphate [5], the “self-cleavage kobs at 10000 uM GlcN6P” value was below 1e-05 s⁻¹.

As for U45G G63U, the “self-cleavage kobs at 40 uM GlcN6P” value with glucosamine-6-phosphate [1] is below 1e-05 s⁻¹. Besides, the “self-cleavage kobs at 160 uM GlcN6P” value with glucosamine-6-phosphate [2] was below 1e-05 s⁻¹. For the same variant, the “self-cleavage kobs at 640 uM GlcN6P” value with glucosamine-6-phosphate [3] was below 1e-05 s⁻¹. In addition, the “self-cleavage kobs at 2500 uM GlcN6P” value with glucosamine-6-phosphate [4] was below 1e-05 s⁻¹. In addition, the “self-cleavage kobs at 10000 uM GlcN6P” value with glucosamine-6-phosphate [5] is below 1e-05 s⁻¹.

Take G29U G32A U65G G66A: the “self-cleavage kobs at 40 uM GlcN6P” value with glucosamine-6-phosphate [1] is below 1e-05 s⁻¹. Further, the “self-cleavage kobs at 10000 uM GlcN6P” value in the series with glucosamine-6-phosphate [5] stood at 4.66e-05 ± 1.9e-05 s⁻¹.

As to C8A C68G, the “self-cleavage kobs at 40 uM GlcN6P” value with glucosamine-6-phosphate [1] came out at 0.000368 ± 0.00014 s⁻¹.

Turning to G13C G63U, the “self-cleavage kobs at 40 uM GlcN6P” value with glucosamine-6-phosphate [1] is below 1e-05 s⁻¹. The “self-cleavage kobs at 2500 uM GlcN6P” value with glucosamine-6-phosphate [4] is below 1e-05 s⁻¹.

In the case of G37U G40A G59U, in the series with glucosamine-6-phosphate [1], the “self-cleavage kobs at 40 uM GlcN6P” value was below 1e-05 s⁻¹. In the series with glucosamine-6-phosphate [4], the “self-cleavage kobs at 2500 uM GlcN6P” value was below 1e-05 s⁻¹. Also, in the series with glucosamine-6-phosphate [5], the “self-cleavage kobs at 10000 uM GlcN6P” value is below 1e-05 s⁻¹.

Consider A53C C61G, for which the “self-cleavage kobs at 40 uM GlcN6P” value with glucosamine-6-phosphate [1] was below 1e-05 s⁻¹. Further, the “self-cleavage kobs at 640 uM GlcN6P” value with glucosamine-6-phosphate [3] was below 1e-05 s⁻¹. For the same variant, the “self-cleavage kobs at 10000 uM GlcN6P” value in the series with glucosamine-6-phosphate [5] is below 1e-05 s⁻¹.

G9A G13U C50G U57A: in the series with glucosamine-6-phosphate [1], the “self-cleavage kobs at 40 uM GlcN6P” value amounted to 0.000665 ± 0.00023 s⁻¹. In the series with glucosamine-6-phosphate [5], the “self-cleavage kobs at 10000 uM GlcN6P” value stood at 9.79e-05 ± 2e-05 s⁻¹.

For the variant G32U U47G U69G, in the series with glucosamine-6-phosphate [1], the “self-cleavage kobs at 40 uM GlcN6P” value amounted to 0.000146 ± 3.4e-05 s⁻¹. The “self-cleavage kobs at 10000 uM GlcN6P” value with glucosamine-6-phosphate [5] stood at 0.000404 ± 7.2e-05 s⁻¹.

With G35C U57A, the “self-cleavage kobs at 40 uM GlcN6P” value with glucosamine-6-phosphate [1] is below 1e-05 s⁻¹. In addition, the “self-cleavage kobs at 160 uM GlcN6P” value in the series with glucosamine-6-phosphate [2] is below 1e-05 s⁻¹. For the same variant, in the series with glucosamine-6-phosphate [3], the “self-cleavage kobs at 640 uM GlcN6P” value is below 1e-05 s⁻¹. In addition, the “self-cleavage kobs at 2500 uM GlcN6P” value with glucosamine-6-phosphate [4] was below 1e-05 s⁻¹.

Take U45G A48U C71G: the “self-cleavage kobs at 40 uM GlcN6P” value with glucosamine-6-phosphate [1] is below 1e-05 s⁻¹.

As to G38U C50U G51C U69A, the “self-cleavage kobs at 40 uM GlcN6P” value with glucosamine-6-phosphate [1] was determined as 8.35e-05 ± 3.9e-05 s⁻¹.

As for G32C G66U, the “self-cleavage kobs at 40 uM GlcN6P” value with glucosamine-6-phosphate [1] is below 1e-05 s⁻¹. In the series with glucosamine-6-phosphate [2], the “self-cleavage kobs at 160 uM GlcN6P” value was below 1e-05 s⁻¹.

As to C16G U57C, in the series with glucosamine-6-phosphate [1], the “self-cleavage kobs at 40 uM GlcN6P” value was below 1e-05 s⁻¹. For the same variant, in the series with glucosamine-6-phosphate [2], the “self-cleavage kobs at 160 uM GlcN6P” value is below 1e-05 s⁻¹. In the series with glucosamine-6-phosphate [5], the “self-cleavage kobs at 10000 uM GlcN6P” value is 3.37e-05 ± 1.2e-05 s⁻¹.

On to G40U G44A, for which the “self-cleavage kobs at 40 uM GlcN6P” value with glucosamine-6-phosphate [1] is below 1e-05 s⁻¹. Moreover, in the series with glucosamine-6-phosphate [2], the “self-cleavage kobs at 160 uM GlcN6P” value was below 1e-05 s⁻¹. Further, the “self-cleavage kobs at 10000 uM GlcN6P” value with glucosamine-6-phosphate [5] is below 1e-05 s⁻¹.

The values are drawn from the supplement of paper PMC7125110.
